This assay addresses “empty” DR4-LZ (DRA*01:01/DRB1*04:01 ectodomains with Jun/Fos leucine zippers, non-covalent heterodimer displayed on yeast through Aga2p) (human).

Results on one substance are retold here after patent US20220381793A1, “COMPOSITIONS AND METHODS FOR IDENTIFYING MHC-II BINDING PEPTIDES” (priority 2021, published 2022).

In turn, “S862-888 (printed “5862-888”) (from UniProt P0DTC2 862-878) (peptide)” gave a % competition of 75%.
